Experimental data as given in patent publication US20110243962A1 (GENEURO, published 2011).

Biological target: T1, MSRV ENV surface domain fragment (ENV-SU), recombinant from E. coli (MSRV (Multiple Sclerosis associated …))
T1 chain: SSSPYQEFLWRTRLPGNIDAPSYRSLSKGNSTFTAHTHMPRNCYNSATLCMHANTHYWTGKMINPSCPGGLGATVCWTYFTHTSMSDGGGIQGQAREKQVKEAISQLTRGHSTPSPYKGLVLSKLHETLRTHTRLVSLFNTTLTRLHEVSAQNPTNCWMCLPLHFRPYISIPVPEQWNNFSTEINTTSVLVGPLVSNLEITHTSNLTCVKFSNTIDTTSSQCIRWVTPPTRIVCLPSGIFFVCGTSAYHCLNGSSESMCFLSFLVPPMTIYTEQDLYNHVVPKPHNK
Assay: cell-based or functional assay

B1: Chimeric GNb AC1 IgG4 (human IgG4 constant regions with murine VH and VL) (antibody, V domains shown)
VH: QVQLQQSGAELVRPGASVTLSCKASGYTFTDYEMHWVKQTPVHGLEWIGAVAPETGGTAYNQKFKGKATLTAAKSSSTAYMELRSLTSEDSAVYYCTSTVVPFAYWGQGTLVTVSA
VL: QIVLTQSPAIMSASPGEKVTISCSASSSVSYMYWYQQKPGSSPKAWIYRTSNLASGVPGRFSGSGSGTSYSLTISSMEAEDAATYYCQQYQSLPLTFGSGTKLEIKR
notes: also called GNbAC1 chimeric IgG4; GNbAC1-IgC4
- IFN-g at 72 h in PBMC culture with ENV-SU 0.5 ug/ml, MAb ratio 10/1 (no antibody: 336): 384
